{
  "source": "paper PMC13147308",
  "about": "“Investigating the molecular mechanisms underlying the anti‐CRISPR function of AcrIIA13b protein”",
  "molecular_target": "T1, AcrIIA13b (shAcrIIA13b) (Staphylococcus haemolyticus, UniProt A0AAX7FLQ9 1-129)",
  "T1 sequence": "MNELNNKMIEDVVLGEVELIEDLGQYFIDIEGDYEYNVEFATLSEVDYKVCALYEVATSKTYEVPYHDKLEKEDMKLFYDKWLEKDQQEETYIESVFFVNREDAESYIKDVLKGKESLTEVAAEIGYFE",
  "assay": "EMSA; no Cas9; Cas9 EMSA: 100 mM NaCl, 50 mM Tris/HCl pH 8.0, 100 ug/mL BSA, 37 C (AcrIIA13b step at RT); 99 nM SauCas9, 90 nM sgRNA, 1.4 nM DNA, 4% gel 0.5x TBE",
  "conditions": "protein: recombinant; tags: C-terminal His6 (pET21a); a tag-free version also exists; chain copies: 2; label: none (SYBR Gold stain); single strand, sgRNA hairpins",
  "data": [
    {"binder": "SauCas9 sgRNA (structured_RNA) RNA: GCAGCUGAUCAGGAACAGCGGUUUUAGUACUCUGGAAACAGAAUCUACUAAAACAAGGCAAAAUGCCGUGUUUAUCUCGUCAACUUGUUGGCGAGAUUU", "values": [
      {"measurement": "binding result", "result": "no binding"}
    ]}
  ]
}
